Measured values taken from article PMC6265330, “Compositional adaptability in NPM1-SURF6 scaffolding networks enabled by dynamic switching of phase separation mechanisms” (Nature Communications, 2018).

Biological target: T1, S6N, N-terminal fragment of Surfeit locus protein 6 (SURF6), residues 1-182 (human, UniProt O75683 1-182)
T1 construct: Surfeit locus protein 6 (SURF6), human, 361 amino acids; N-terminal construct of residues 1-182 with R-motifs R1 and R2; In imaging experiments 10% was labelled with Alexa Fluor 647 at Cys19; also called SURF6 N-terminal construct; source: E. coli BL21 Rosetta 2 (DE3), purified from inclusion bodies (Ni-NTA under denaturing conditions, TEV cleavage, C4 HPLC)
T1 sequence (looked up): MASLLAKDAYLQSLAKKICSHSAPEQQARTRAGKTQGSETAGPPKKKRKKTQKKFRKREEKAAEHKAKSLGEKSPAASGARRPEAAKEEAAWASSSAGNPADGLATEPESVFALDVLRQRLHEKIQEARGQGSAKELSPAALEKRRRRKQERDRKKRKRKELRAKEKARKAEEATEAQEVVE
Assay: not stated; method and conditions not shown in the main text (Supplementary Fig. 13)
Conditions: both partners purified

Kd: 350 nM
B1: IDR of NPM1 (domain or fragment, UniProt P06748 120-240, looked up)
chain: EEDAESEDEEEEDVKLLSISGKRSAPGGGSKVPQKKVKLAADEDDDDDDEEDDDEDDDDDDFDDEEAEEKAPVKKSIRDTPAKNAQKSNQNGKDSKPSSTPRSKGQESFKKQEKTPKTPKG
notes: Nucleophosmin (NPM1), central intrinsically disordered region; also called NPM1-IDR
